Source: PMC4693281

B1: bovine ZP3 fragment Arg-32 to Glu-178, N-terminal His-tag and S-tag [modified: N-glycosylated Asn-124 and Asn-146; N-glycosylated Asn-124 and Asn-146] [bovine] / bovine ZP4 (Lys-25 to Arg-464) with N-terminal FLAG-tag and … (parent)
chain 1: RFRPSKPPAVMVECQEAQLVVTVDKDLFGTGKLIRPADLTLGPDNCEPLASADTDGVVRFAVGLHECGNILQVTDNALVYSTFLLHNPRPAGNLSILRTNRAEVPIECHYPRQGNVSSWAIQPTWVPFRTTVFSEEKLVFSLRLMEE
chain 2: KVPEYPDELRCGLRSFQFTINPLSQETETPPVLVAWDNHGLPHSLQNDSDCGTWVSEGPGSSLVGEASYSGCYVTEWESYYIMTVGIERAGVSGSGAFIETKLFKCPVNLPDVPNAGLCDSVPVWDRLPCAPSPITQGDCKQLGCCYNSEEVISCYYGNTVTSHCTQDGHFSIAVSRNVTSPPLLLNSVHLAFRNDSECKPVMATHTFVLFRFPFTTCGTTKQITGKQAVYENELVAARDVRTWSRGSITRDSTFRLQVSCSYSASSSALPVNVQVLTLPPPLPETQPGNLTLELKIAKDKRYRSYYTASDYPVVKLLRDPIYVEVSIHQRTDPSLELRLDQCWATPGADALLQPQWPLLVNGCPYTGDNYQTKLIPVWEASDLPFPSHYQRFSISTFSFVDSVAKRALKGPVYLHCSASVCQPAGTPSCVTLCPARRRR

Variants of: B1
Assay: co-precipitation (TALON resin pull-down of His-tagged ZP3 fragment, anti-FLAG Western blot quantified with NIH ImageJ)
Details: with bovine ZP4 (Lys-25 to Arg-464) with N-terminal FLAG-tag and S-tag [bovine]; parent: 100; read off a plot

| percent of parent | Variant |
| --- | --- |
| 130% | chain 1 RFRPSKPPAVMVECQEAQLVVTVDKDLFGTGKLIRPADLTLGPDNCEPLASADTDGVVRFAVGLHECGNILQVTDNALVYSTFLLHNPRPAGNLSILRTNRAEVPIECHYPRQGDVSSWAIQPTWVPFRTTVFSEEKLVFSLRLMEE |
| 110% | chain 1 RFRPSKPPAVMVECQEAQLVVTVDKDLFGTGKLIRPADLTLGPDNCEPLASADTDGVVRFAVGLHECGNILQVTDNALVYSTFLLHNPRPAGDLSILRTNRAEVPIECHYPRQGDVSSWAIQPTWVPFRTTVFSEEKLVFSLRLMEE |
| 100% | chain 1 RFRPSKPPAVMVECQEAQLVVTVDKDLFGTGKLIRPADLTLGPDNCEPLASADTDGVVRFAVGLHECGNILQVTDNALVYSTFLLHNPRPAGDLSILRTNRAEVPIECHYPRQGNVSSWAIQPTWVPFRTTVFSEEKLVFSLRLMEE |
